According to patent US20250084169A1:
pKd: −log10 of the molar value. Like-named read-outs stand apart in the source and are kept apart here.

Tests used:
[1] = target: cynomolgus monkey Fc gamma receptor CD64 (cynomolgus monkey)
[2] = target: cynomolgus monkey Fc gamma receptor CD64 (cynomolgus monkey); remark: listed apart in the source
[3] = target: cynomolgus monkey Fc gamma receptor CD32b (cynomolgus monkey)
[4] = target: cynomolgus monkey Fc gamma receptor CD32a (cynomolgus monkey)
[5] = target: cynomolgus monkey Fc gamma receptor CD32a (cynomolgus monkey); remark: listed apart in the source

Sequence of Tafasitamab-cxix (research grade biosimilar) (antibody) (heavy): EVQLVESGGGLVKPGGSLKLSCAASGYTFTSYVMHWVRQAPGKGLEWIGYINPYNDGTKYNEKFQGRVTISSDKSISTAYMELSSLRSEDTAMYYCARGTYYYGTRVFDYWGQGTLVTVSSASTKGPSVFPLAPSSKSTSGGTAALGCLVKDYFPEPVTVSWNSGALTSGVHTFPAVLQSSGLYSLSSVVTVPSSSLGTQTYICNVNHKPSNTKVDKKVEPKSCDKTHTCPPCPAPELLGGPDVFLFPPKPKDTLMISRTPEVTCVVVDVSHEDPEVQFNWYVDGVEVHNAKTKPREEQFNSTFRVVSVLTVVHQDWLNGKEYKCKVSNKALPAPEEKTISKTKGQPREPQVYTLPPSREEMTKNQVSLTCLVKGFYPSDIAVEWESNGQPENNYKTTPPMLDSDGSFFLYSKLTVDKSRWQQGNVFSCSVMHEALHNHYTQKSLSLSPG
Sequence of Tafasitamab-cxix (research grade biosimilar) (antibody) (light): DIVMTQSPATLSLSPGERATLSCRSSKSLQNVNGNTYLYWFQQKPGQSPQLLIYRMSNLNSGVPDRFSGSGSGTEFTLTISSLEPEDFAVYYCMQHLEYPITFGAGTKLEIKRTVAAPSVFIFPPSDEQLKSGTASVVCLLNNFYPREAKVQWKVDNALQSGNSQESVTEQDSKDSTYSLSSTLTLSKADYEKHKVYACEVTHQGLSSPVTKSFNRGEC

Row | Substance | pKd [1] | pKd [2] | pKd [3] | pKd [4] | pKd [5]
1 | FMC59-S239D/I332E (huFMC63-S239D/I332E) (antibody) | > 10.70 | 9.00 | – | – | –
2 | Rituximab (antibody) | > 10.70 | – | 5.84 | 5.50 | 5.23
3 | Tafasitamab-cxix (research grade biosimilar) (antibody) | > 10.70 | 8.74 | – | – | –
